The Kd is the constant that tells how readily two partners part at equilibrium. In general, koff refers to a measure of how fast the partners let go of each other. Lower therefore signals slow dissociation. By kon is commonly meant the second-order rate constant of association. Low readings indicate slow association, high ones fast association.

Assay [1] addresses CARP-1 (636–650) peptide, biotin-labelled (human) (UniProt Q8IX12). Put plainly: SPR; SPRi (PlexArray HT); CARP-1 (636–650) peptide printed on bare gold-coated PlexArray Nanocapture chip, blocked with 5% non-fat milk; PBST pH 7.4, 25 °C; global fit to a 1:1 interaction model. (In general: SPR reads the build-up and loss of mass on a sensor chip optically.)
For the next assay, the system named is HeLa cells. Put plainly: MTT cell viability/growth inhibition, HeLa. The assay is classed as cell-based, human. Conditions: HeLa CARP-1 (Δ600–650) vs WT CARP-1-expressing counterparts, mean of three experiments. As to the method:
(§1) Routine maintenance and culture of MDA-MB-468 (lacking estrogen receptor; ER and having mutant p53) human triple-negative breast cancer (TNBC) cells, human cervical cancer HeLa, human kidney cancer UOK 262, non-small-cell lung cancer H1975, and HCC827 cells was carried out essentially as described previously. Generation and characterization of MDA-MB-468 cells expressing reduced CARP-1 was described previously. The stable sublines were generated by transfecting the MDA-MB-468 and Hela cells with the pcDNA3 vector, pcDNA3-CARP-1 wild-type (WT)-myc-His clone 6.1.2, pcDNA3-CARP-1(Δ600–650)-myc-His, pcDNA3-EGFP, pcDNA3-EGFP-H2AX (1–35), or pcDNA3-EGFP-CARP-1 (636–650) plasmids, followed by selection in the presence of 800 μg/mL neomycin using described methods. The cell lysates from wild-type, untransfected cells, neomycin-resistant pools, or individual sublines were then subjected to MTT-based viability, confocal, immunoprecipitation (IP), and Western blot (WB) analyses as below.
(§2) The cell growth inhibition was assessed using an MTT assay following the established protocols described by us previously.
(§3) Here, we utilized human TNBC MDA-MB-468 and human cervical cancer HeLa cells to conduct an MTT-based dose-response analysis using Adriamycin and CFM compounds. […] Since Adriamycin, CFM-4, and CFM-4.16 have molecular masses of 543.3, 404.9, and 440.3, respectively, we chose to use an equimolar dose of each compound in the MTT assays. […] Prior reports established that phosphorylation of H2AX at serine 139 (γ-H2AX) is involved in DNA damage repair and apoptotic signaling by ATM/ATR and JNKs, respectively. Next, the MDA-MB-468, HeLa, and the kidney cancer UOK 262 cells were treated with a 10 μM dose of the CFM-4.16 or Adriamycin for various time periods. The cell lysates from the control, untreated, and treated cells were analyzed by WB for expression of CARP-1, phospho-JNK1/2, phospho-H2AX, and poly ADP ribose polymerase (PARP) proteins. […] The H2AX activation is also indicative of DNA damage and involves pro-apoptotic JNKs. Our data in Figure 1C and Figure S1B,C (Supplementary Materials) also show activation of JNKs; however, a robust JNK activation is co-incident with H2AX phosphorylation following treatments with Adriamycin or CFM-4.16.
Figure 8 Ectopic expression of TAT-CARP-1 (636–650) peptide results in enhanced viabilities of Adriamycin-treated cells. MDA-MB-468 (A) or HeLa (B) cells were pre-incubated with 300 μg/mL indicated peptides for 72 h, followed by treatments with the noted dose and time of Adriamycin. Determination of viable/live cells was carried out using an MTT assay as described in Section 2. The bar charts in panels A and B represent means of three and two independent experiments, respectively; bars, SE. (C) Indicated cells were either pre-incubated with 6 μg/mL indicated peptides for 72 h or not (Control), followed by treatments with Adriamycin as noted. Cells were then processed for immunofluorescence staining for TAT-CARP-1 peptide (red), γH2AX (green), and DAPI (blue) as detailed in Section 2 and Figure S3 (Supplementary Materials). Insets in C show enlarged areas of respective photomicrographs to indicate presence of TAT-CARP-1 peptide and γH2AX in respective columns. The insets in the top and middle rows of the merge column show co-localization of TAT-CARP-1 peptide, and γH2AX (magnification: 250×).
Figure S7. Disruption of H2AX interaction with CARP-1 results in enhanced viabilities of CFM-4, CFM-4.16, or Adriamycin-treated cells in part due to reduced γH2AX and apoptosis. (A,B,C) Indicated HeLa cell lines were treated with DMSO (Control), noted dose and time of Adriamycin, CFM-4, or CFM-4.16 compounds. Determination of viable/live cells was carried out by MTT assay as in methods. The columns in bar charts in panels A, B, C represent means of three independent […]
experiments; bars, SE. […]

The next assay has as its system MDA-MB-468 cells. Put plainly: MTT cell viability/growth inhibition, MDA-MB-468. Conditions: MDA-MB-468 CARP-1 (Δ600–650) vs WT CARP-1-expressing counterparts, MTT, mean of three experiments. Type of assay: cell-based, human. As to the method: as §1, §2, §3
Figure 7 Disruption of H2AX interaction with CARP-1 results in enhanced viabilities of CFM-4-, CFM-4.16-, or Adriamycin-treated cells in part due to reduced apoptosis. (A,C,D) Indicated MDA-MB-468 cell lines were treated with DMSO (Control), or with the noted dose and time of Adriamycin, CFM-4, or CFM-4.16 compounds. Determination of viable/live cells was carried out by MTT assay as described in Section 2. (B,E,F) Cell lysates derived from vehicle DMSO (Control), or CFM-4-, CFM-4.16-, or Adriamycin-treated cells were added to the wells that had immobilized fluorogenic substrates of noted caspases. The fluorescence released from the activated caspase-dependent cleavage of respective substrate was detected by a plate reader at the excitation and emission wavelengths of 380 nm and 460 nm, respectively, as detailed in Section 2. The columns in bar charts in panels A, C, D and B, […] represent means of three and two independent experiments, respectively; bars, SE. For panels C and D, * p < 0.05, **p < 0.01 and *** p ≤ 0.001 relative to the respective EGFP vector subline. For panels E and F, *** p ≤ 0.05 relative to the respective EGFP vector subline.
Figure 8 Ectopic expression of TAT-CARP-1 (636–650) peptide results in enhanced viabilities of Adriamycin-treated cells. MDA-MB-468 (A) or HeLa (B) cells were pre-incubated with 300 μg/mL indicated peptides for 72 h, followed by treatments with the noted dose and time of Adriamycin. Determination of viable/live cells was carried out using an MTT assay as described in Section 2. […]

The next assay has as its system Gst-H2AX. Put plainly: Gst-pulldown with Gst-H2AX. The assay is classed as binding, human. Conditions: E. coli-expressed, 4 °C, 2 h, WB anti-HA, Figure 5A. The protocol: Logarithmically growing cells were either untreated or treated with different agents for various time periods. The cells were lysed to prepare protein extracts. IP was carried out by incubating approximately 1 mg of the protein lysate with appropriate antibodies. The immunoprecipitates were then analyzed by SDS-PAGE, followed by WB with respective, interacting protein. For Gst-pulldown, Gst-H2AX or various His-TAT-HA-tagged CARP-1 peptides were generated in Escherichia coli (E. coli) BL21 cells essentially as described by us previously. Briefly, the competent E. coli BL-21 (DE3) pLysS cells were transformed separately with various recombinant pGEX-4T-1 or pTAT-HA constructs. The transformed cells were then subjected to selection by combined presence of ampicillin and chloramphenicol; various isolates for each transformation were obtained and bacterial lysates were characterized for expression of fusion peptides. Cells from each isolate were grown in 4 mL of LB medium containing ampicillin only until the optical density (OD)600 reached 0.4–0.8. Expression of fusion peptides was induced over 2–4 h incubation periods after Isopropyl β-D-1-thiogalactopyranoside (IPTG) addition. The cells were harvested, and pellets were stored at −80 °C overnight. […]

In assay [1], “H2AX (1–35) peptide (from UniProt P16104 1-35)” had a dissociation constant (Kd) of 126 nM, a koff of 0.000292 s⁻¹ and a kon of 2320 M⁻¹ s⁻¹.

`O=C1N(Cc2ccccc2Cl)c2ccccc2C12NN=C(c1ccccc1)S2` (stereo not drawn) [CFM-4]: the “growth inhibition of CARP-1 (Δ600–650)-expressing cells” value with HeLa cells and in the assay on MDA-MB-468 cells was “resistant to inhibition by CFM-4 or ADR” throughout.

B1: His-TAT-HA-CARP-1 (552–654): E. coli-expressed His-TAT-HA-tagged CARP-1 peptide (peptide)
chain: RPEETHKGRTVPAHVETVVLFFPDVWHCLPTRSEWETLSRGYKQQLVEKLQGERKEADGEQDEEEKDDGEAKEISTPTHWSKLDPKTMKVNDLRKELESRALS
modifications: left off: His, end not stated, kept | TAT, end not stated, kept | HA, end not stated, kept
notes: E. coli-expressed His-TAT-HA-tagged CARP-1 peptide
B1: the “binding with Gst-H2AX protein” value in the assay with Gst-H2AX was “bound with Gst-H2AX protein”.

The record behind these values is publication PMC6406907, “A H2AX–CARP-1 Interaction Regulates Apoptosis Signaling Following DNA Damage” (Cancers, 2019).
